Marks after values point to notes of the source that are not given here.
Legend:
HMGB1 = experiment: A box inhibition of HMGB1 induced TNF release from RAW 264.7 cells (L929 assay); format: cell-based; conditions: HMGB1 1 μg/ml, A box 0-25 μg/ml, 16 hours
Protocol: Weak agonists are by definition antagonists. […] This study was carried out as follows. Sub-confluent RAW 264.7 cells in 24-well dishes were treated with HMGB1 (1 μg/ml) and 0, 5, 10, or 25 μg/ml of A box for 16 hours in Opti-MEM I medium in the presence of polymyxin B (100 units/ml). The TNF-stimulating activity (assayed using the L929 cytotoxicity assay described herein) in the sample receiving no A box was expressed as 100%, and the inhibition by A box was expressed as percent of HMGB1 alone. […] Data in FIG. 4A are presented as mean±SD (n=2-3 independent experiments).

RAW 264.7 cells [1] = experiment: IL-6 release from RAW 264.7 cells (ELISA); format: cell-based, murine; conditions: B box 0-10 μg/ml, 8 hours
Protocol: To further examine the effect of HMGB1 B box on cytokine production, varying amounts of HMGB1 B box were evaluated for the effects on TNF, IL-1 B, and IL-6 production in murine macrophage-like RAW 264.7 cells. Conditioned media were harvested and measured for TNF, IL-1β and IL-6 levels. TNF levels were measured as described herein, and IL-1β and IL-6 levels were measured using the mouse IL-1β and IL-6 enzyme-linked immunosorbent assay (ELISA) kits (R&D System Inc., Minneapolis, Minn.) and N>5 for all experiments.

RAW 264.7 cells [2] = experiment: TNF mRNA expression in RAW 264.7 cells (RNase protection assay); format: cell-based, murine; conditions: 10 μg/ml
Protocol: The kinetics of B box-induced TNF release was also examined. TNF release and TNF mRNA expression was measured in RAW 264.7 cells induced by B box polypeptide or GST tag polypeptide only used as a control (vector) (10 μg/ml) for 0 to 48 hours. Supernatants were analyzed for TNF protein levels by an L929 cytotoxicity assay (N=3-5) as described herein. For mRNA measurement, cells were plated in 100 mm plate and treated in Opti-MEM I medium containing B box polypeptide or the vector alone for 0, 4, 8, or 24 hours, as indicated in FIG. 2D. The vector only sample was assayed at the 4 hour time point. Cells were scraped off the plate and total RNA was isolated by RNAzol B method in accordance with the manufacturer's instructions (Tel-Test “B”, Inc., Friendswood, Tex.). TNF (287 bp) was measured by RNase protection assay (Ambion, Austin, Tex.). Equal loading and the integrity of RNA was verified by ethidium bromide staining of the RNA sample on agarose-formaldehyde gel. […] TNF mRNA expression was maximal at 4 hours and decreased at 8 and 24 hours. […] A similar study was carried out measuring TNF protein released from RAW 264.7 cells 0, 4, 8, 24, 32 or 48 hours after administration of B box or vector only (GST tag), using the L929 cytotoxicity assay described herein. […] Data are representative of three separate experiments.

[3] = test system: D-galactosamine-sensitized Balb/c mice; experiment: Toxicity in D-galactosamine-sensitized Balb/c mice (survival); format: in vivo
Protocol: The D-galactosamine-sensitized model has been described previously (Galanos et al., Proc Natl. Acad. Sci. USA 76: 5939-5943, 1979; and Lehmann et al., J. Exp. Med. 165: 657-663, 1997). Mice were injected intraperitoneally with 20 mg D-galactosamine-HCL (Sigma)/mouse (in 200 μl PBS) and 0.1 or 1 mg of either HMGB1 B box or vector protein (in 200 μl PBS). Mortality was recorded daily for up to 72 hours after injection; survivors were followed for 2 weeks, and no later deaths from B box toxicity were observed.
To investigate whether the HMGB1 B box has cytokine activity in vivo, we administered HMGB1 B box protein to unanesthetized Balb/c mice sensitized with D-galactosamine (D-gal), a model that is widely used to study cytokine toxicity (Galanos et al., supra). Briefly, mice (20-25 gram, male, Harlan Sprague-Dawley, Indianapolis, Ind.) were intraperitoneally injected with D-gal (20 mg) (Sigma) and B box (0.1 mg/ml/mouse or 1 mg/ml/mouse) or GST tag (vector; 0.1 mg/ml/mouse or 1 mg/ml/mouse), as indicated in Table 1. Survival of the mice was monitored up to 7 days to ensure no late death occurred.

Molecule	apparent EC50 for inhibition of HMGB1 induced TNF release (HMGB1)	IL-6 release, dose dependence (RAW 264.7 cells [1])	time of maximal TNF mRNA expression (RAW 264.7 cells [2]) [h]	TNF mRNA expression (RAW 264.7 cells [2]; 0-24 hours (vector at 4 hours))	Alive/total ([3]; 0.1 mg/mouse ip with D-gal 20 mg)	Alive/total ([3]; 1 mg/mouse ip with D-gal 20 mg)	lethality ([3]; D-galactosamine-sensitized mice)	time to death ([3]; instances in which death occurred) [h]
A box: Human HMGB1 mutant containing only the A box, SEQ ID NO:21 (A box SEQ ID NO:22) (protein) MGKGDPKKPTGKMSSYAFFVQTCREEHKKKHPDASVNFSEFSKKCSERWKTMSAKEKGKFEDMAKADKARYEREMKTYIPPKGET	approximately 7.5 μg/ml	–	–	–	–	–	–	–
B box: Human HMGB1 mutant containing only the B box, SEQ ID NO:20 (protein) FKDPNAPKRLPSAFFLFCSEYRPKIKGEHPGLSIGDVAKKLGEMWNNTAADDKQPYEKKAAKLKEKYEKDIAAY	–	increased with increased amounts of B box	4	increased significantly	6/6	2/8*	lethal to D-galactosamine-sensitized mice in a dose-dependent manner	≤ 12

From patent US7897569B2, “Use of HMGB fragments as anti-inflammatory agents” (The Feinstein Institute for Medical Research, priority 2001, dated 2011)
